# Where two headings read alike, the source gives them in different places.
# T1: TIA-1 RRM2,3 (Homo sapiens, UniProt P31483-2 93-274)
# T1 sequence: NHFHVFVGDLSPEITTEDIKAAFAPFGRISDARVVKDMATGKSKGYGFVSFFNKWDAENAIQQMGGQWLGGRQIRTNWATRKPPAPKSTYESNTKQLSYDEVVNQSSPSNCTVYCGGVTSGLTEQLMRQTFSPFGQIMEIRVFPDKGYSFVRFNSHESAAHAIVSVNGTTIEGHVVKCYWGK
# T2: TIA-1 RRM1,2,3 (Homo sapiens, UniProt P31483-2 1-274)
# T2 sequence: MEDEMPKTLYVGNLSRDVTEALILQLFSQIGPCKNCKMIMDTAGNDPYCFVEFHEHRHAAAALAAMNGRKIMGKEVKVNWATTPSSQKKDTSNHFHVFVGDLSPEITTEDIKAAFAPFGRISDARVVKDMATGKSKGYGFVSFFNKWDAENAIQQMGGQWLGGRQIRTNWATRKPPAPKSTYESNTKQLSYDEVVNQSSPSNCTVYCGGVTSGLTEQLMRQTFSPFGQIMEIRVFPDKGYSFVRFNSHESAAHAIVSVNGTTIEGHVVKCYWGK
# Columns and labels:
# Test in all cases: ITC
# [1] = target: T1, TIA-1 RRM2,3
# [2] = target: T1, TIA-1 RRM2,3; remark: listed apart in the source
# [3] = target: T1, TIA-1 RRM2,3; remark: listed apart in the source
# [4] = target: T2, TIA-1 RRM1,2,3
binder,measurement,setting,value
UUUUUUUUU (ssRNA) [U9],Kd,[1],7 ± 0.2 nM
same,Kd,[2],5.6 ± 1.9 nM
UUCUCCUUUC (ssRNA) [fas_10],Kd,[3],35.6 ± 8.1 nM
UUUUUUUUUUUUUUU (ssRNA) [U15],Kd,[4],16.9 ± 2.7 nM

# Reference: article PMC4027183
